Laboratory results published in publication PMC5913134, “The IL-33-PIN1-IRAK-M axis is critical for type 2 immunity in IL-33-induced allergic airway inflammation” (Nature Communications, 2018).
Where no end group is shown, it is not given here. [ ]: non-standard residue; d: D form. pS = N[C@@H](COP(=O)(O)O)C(=O)O

Molecular target: T1, 15N-labeled PIN1 WW domain (PIN1 residues 1-50) (UniProt Q13526 1-50)
T1 construct: PIN1 residues 1-50 (WW domain); The methods describe a pET28 His6-TEV construct for PIN1; also called 15N-PIN1-WW; source: expressed and purified, 15N-labeled
Assay: NMR titration; 1H-15N HSQC of 15N-PIN1-WW at constant concentration, peptide serially diluted (reverse titration), 25 °C, 600 MHz; fit to a simple bimolecular model; apparent
Settings: both partners purified

T1 sequence (Q13526 1-50): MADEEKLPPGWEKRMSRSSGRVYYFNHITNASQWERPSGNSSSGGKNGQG

B1: IRAK-M-pS110 peptide (IRAK-M residues 103-124 with Ser110 phosphorylated) (peptide)
peptide: TNYGAVL[pS]PSEKSYQEGGFPNI
notes: IRAK-M (IRAK3) residues 103-124; also called IRAK-M phosphopeptide; pIRAK-M-pS110; source: synthetic peptide (Tufts University Core Facility)
  Kd: 60.7 µM
